Here are results for one molecule from article doi:10.1101/2022.02.08.479534, “FoxP3 can fold into two distinct dimerization states with divergent functional implications for T cell homeostasis”.

For one series, the target named is T1, NusA-FoxP4RBR-forkhead (Mus musculus, UniProt Q9DBY0 418-577).
T1 sequence: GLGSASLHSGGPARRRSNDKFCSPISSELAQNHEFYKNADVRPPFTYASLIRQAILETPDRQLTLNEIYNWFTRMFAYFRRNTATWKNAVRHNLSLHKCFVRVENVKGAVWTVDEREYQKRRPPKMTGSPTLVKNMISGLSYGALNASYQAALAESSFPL
Briefly: EMSA; equal to sFKHM; EMSA: 0.2 uM DNA, 20 mM Tris pH 7.5, 150 mM NaCl, 1.5 mM MgCl2, 2 mM DTT, 30 min at 4 C; anti-HA bead DNA pull-down: 20 min at room temperature; the EMSA IR-FKHM4g length is taken as 31 bp. As to conditions: protein: recombinant; tags: His6-NusA; blunt. In general terms: Mobility shift assays separate free from complexed probe on a gel.

The next series addresses T2, NusA-FoxP1RBR-forkhead (Mus musculus, UniProt P58462 433-579).
T2 sequence: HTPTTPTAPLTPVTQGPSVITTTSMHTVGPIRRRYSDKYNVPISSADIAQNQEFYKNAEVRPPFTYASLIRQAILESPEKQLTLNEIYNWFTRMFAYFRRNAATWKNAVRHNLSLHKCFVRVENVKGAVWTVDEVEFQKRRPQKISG
The series is described as above. Conditions: protein: recombinant; tags: His6-NusA; blunt.

In the next series the target is T3, FoxP3ZF-CC (Mus musculus, UniProt Q99JB6 188-284).
T3 sequence: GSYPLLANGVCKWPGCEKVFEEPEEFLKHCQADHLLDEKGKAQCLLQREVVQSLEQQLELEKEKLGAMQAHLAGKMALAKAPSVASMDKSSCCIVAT
Briefly: EMSA; up to 4 uM; barely detectable; EMSA: 0.2 uM DNA, 20 mM Tris pH 7.5, 150 mM NaCl, 1.5 mM MgCl2, 2 mM DTT, 30 min at 4 C; anti-HA bead DNA pull-down: 20 min at room temperature; the EMSA IR-FKHM4g length is taken as 31 bp. Conditions: protein: recombinant; blunt.

B1: IR-FKHM4g (31bp) (dsDNA)
DNA 1: TTAGGAAAATTTGTTTACTCGAGTAAACAAA
DNA 2: TTTGTTTACTCGAGTAAACAAATTTTCCTAA
With B1, the values for the binding result with NusA-FoxP4RBR-forkhead, in the series with NusA-FoxP1RBR-forkhead and with FoxP3ZF-CC were “binds”, “binds” and “no binding”, respectively.
